Measured values: publication PMC4938799, “LD Motif Recognition by Talin: Structure of the Talin-DLC1 Complex” (Structure(London, England:1993), 2016)

System: A549 human non-small cell lung cancer line
Experiment: Growth in soft agar
Format: cell-based
Details: transfected A549, 3 weeks; mean over three experiments
Source text: Figure 6 Talin R8 Mutations Disrupt the Interaction with DLC1 and Affect Its Biological Activity (A) Wild-type GST-talin fragments pull down more DLC1 than the 2E mutants. Extracts of HEK293T cells transfected with GFP-DLC1 and GST-talin constructs were subjected to pull-down assays with glutathione beads followed by immunoblotting with anti-GST and anti-DLC1 on the same membrane (top). The transfected GFP-DLC1 in each sample is shown by the anti-DLC1 blot (bottom) as a loading control. (B) Wild-type GST-talin fragments compete efficiently with endogenous talin to form a complex with DLC1. The supernatants collected after pull-down assay from (A) were reused for co-immunoprecipitation with an anti-talin antibody and blotted with anti-DLC1 (top). A small aliquot from each lane was blotted for endogenous talin as a loading control (bottom). (C) Co-expression of GST or GST-talin fragments (wild-type or 2E mutant) with GFP DLC1 in A549 cells. […] Transfected A549 cells were cultured in G418 for 3 weeks, and colonies counted and quantitated (top). […] Transfected A549 cells were grown for 3 weeks in soft agar, and colonies counted and quantitated (top). […] Lysates from migrated cells were quantitated (top), and representative microscopic images of the migrated cells are shown (bottom). […]

B1: GST-R8: GST-tagged talin R8, amino acids 1,453–1,580 (protein)
chain: NSQAGQQGLVEPTQFARANQAIQMACQSLGEPGCTQAQVLSAATIVAKHTSALCNSCRLASARTANPTAKRQFVQSAKEVANSTANLVKTIKALDGDFTEENRAQCRAATAPLLEAVDNLSAFASNPE
modifications: left off: GST, end not stated, kept
growth in soft agar: no detectable biological activity
